In patent US8461305B2, “L-fucose α1→6 specific lectin” (J-Oil Mills, Inc., priority 2008, dated 2013):

Assay: frontal affinity chromatography (FAC), association constant to PA sugar chains without L-fucose
Format: binding
Details: 25 degrees C.
How it was run: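 Lectin coupled via primary amines to NHS-activated sepharose in a miniature column, run in TBS (pH 7.4) at 0.125 ml/min and 25 degrees C. PA sugar chains (3.75 nM or 7.5 nM) applied in excess, with elution monitored by fluorescence (ex 310/em 380 nm). Ka calculated from front-end delay (V−Vo) versus PA rhamnose and effective ligand amount (Bt).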

B1: Pisum sativum agglutinin (protein)
chain: TETTSFLITKFSPDQQNLIFQGDGYTTKEKLTLTKAVKNTVGRALYSSPIHIWDRETGNVANFVTSFTFVINAPNSYNVADGFTFFIAPVDTKPQTGGGYLGVFNSAEYDKTTQTVAVEFDTFYNAAWDPSNRDRHIGIDVNSIKSVNTKSWKLQNGEEANVVIAFNAATNVLTVSLTYPNSLEEENVTSYTLSDVVSLKDVVPEWVRIGFSATTGAEYAAHEVLSWSFHSELSGTSSSKQAADA
Question: For B1, which “association constant Ka” value (Sugar chain No. 001) is on record?
Answer: The value was <1000 M⁻¹.

Question: What about the “association constant Ka” value (Sugar chain No. 002) of the same molecule?
Answer: The value was <1000 M⁻¹.

Question: And the “association constant Ka” value (Sugar chain No. 003)?
Answer: Its value is 7800 M⁻¹.

Question: What about the “association constant Ka” value (Sugar chain No. 004) of the same molecule?
Answer: The value was <1000 M⁻¹.

Question: What about the “association constant Ka” value (Sugar chain No. 005) of the same molecule?
Answer: The value was 7400 M⁻¹.

Question: And the “association constant Ka” value (Sugar chain No. 006)?
Answer: The value was 7100 M⁻¹.

Question: And the “association constant Ka” value (Sugar chain No. 007)?
Answer: Its value is 7800 M⁻¹.

Question: And the “association constant Ka” value (Sugar chain No. 008)?
Answer: Its value is 10000 M⁻¹.

Question: And the “association constant Ka” value (Sugar chain No. 009)?
Answer: Its value is 7900 M⁻¹.

Question: What about the “association constant Ka” value (Sugar chain No. 010) of the same molecule?
Answer: The value was <1000 M⁻¹.

Question: What about the “association constant Ka” value (Sugar chain No. 011) of the same molecule?
Answer: Its value is <1000 M⁻¹.

Question: What about the “association constant Ka” value (Sugar chain No. 012) of the same molecule?
Answer: The value was 17000 M⁻¹.

Question: What about the “association constant Ka” value (Sugar chain No. 013) of the same molecule?
Answer: Its value is <1000 M⁻¹.

Question: And the “association constant Ka” value (Sugar chain No. 014)?
Answer: The value was 8600 M⁻¹.

Question: And the “association constant Ka” value (Sugar chain No. 101)?
Answer: Its value is <1000 M⁻¹.

Question: What about the “association constant Ka” value (Sugar chain No. 103) of the same molecule?
Answer: The value was <1000 M⁻¹.

Question: What about the “association constant Ka” value (Sugar chain No. 104) of the same molecule?
Answer: The value was <1000 M⁻¹.

Question: And the “association constant Ka” value (Sugar chain No. 105)?
Answer: The value was <1000 M⁻¹.

Question: And the “association constant Ka” value (Sugar chain No. 107)?
Answer: Its value is <1000 M⁻¹.

Question: What about the “association constant Ka” value (Sugar chain No. 108) of the same molecule?
Answer: Its value is <1000 M⁻¹.

Question: And the “association constant Ka” value (Sugar chain No. 301)?
Answer: Its value is <1000 M⁻¹.

Question: What about the “association constant Ka” value (Sugar chain No. 304) of the same molecule?
Answer: The value was <1000 M⁻¹.

Question: And the “association constant Ka” value (Sugar chain No. 305)?
Answer: The value was <1000 M⁻¹.

Question: And the “association constant Ka” value (Sugar chain No. 307)?
Answer: Its value is 2400 M⁻¹.

Question: What about the “association constant Ka” value (Sugar chain No. 308) of the same molecule?
Answer: The value was <1000 M⁻¹.

Question: What about the “association constant Ka” value (Sugar chain No. 313) of the same molecule?
Answer: The value was <1000 M⁻¹.

Question: What about the “association constant Ka” value (Sugar chain No. 314) of the same molecule?
Answer: The value was <1000 M⁻¹.

Question: And the “association constant Ka” value (Sugar chain No. 323)?
Answer: Its value is <1000 M⁻¹.

Question: What about the “association constant Ka” value (Sugar chain No. 501) of the same molecule?
Answer: The value was <1000 M⁻¹.

Question: What about the “association constant Ka” value (Sugar chain No. 502) of the same molecule?
Answer: The value was <1000 M⁻¹.

Question: What about the “association constant Ka” value (Sugar chain No. 503) of the same molecule?
Answer: Its value is <1000 M⁻¹.

Question: And the “association constant Ka” value (Sugar chain No. 504)?
Answer: The value was <1000 M⁻¹.

Question: And the “association constant Ka” value (Sugar chain No. 701)?
Answer: The value was <1000 M⁻¹.

Question: What about the “association constant Ka” value (Sugar chain No. 702) of the same molecule?
Answer: Its value is <1000 M⁻¹.

Question: What about the “association constant Ka” value (Sugar chain No. 703) of the same molecule?
Answer: Its value is <1000 M⁻¹.

Question: What about the “association constant Ka” value (Sugar chain No. 704) of the same molecule?
Answer: Its value is <1000 M⁻¹.

Question: What about the “association constant Ka” value (Sugar chain No. 705) of the same molecule?
Answer: The value was <1000 M⁻¹.

Question: What about the “association constant Ka” value (Sugar chain No. 706) of the same molecule?
Answer: The value was <1000 M⁻¹.

Question: What about the “association constant Ka” value (Sugar chain No. 707) of the same molecule?
Answer: The value was <1000 M⁻¹.

Question: And the “association constant Ka” value (Sugar chain No. 708)?
Answer: The value was <1000 M⁻¹.

Question: And the “association constant Ka” value (Sugar chain No. 709)?
Answer: Its value is <1000 M⁻¹.

Question: And the “association constant Ka” value (Sugar chain No. 710)?
Answer: Its value is <1000 M⁻¹.

Question: And the “association constant Ka” value (Sugar chain No. 711)?
Answer: The value was <1000 M⁻¹.

Question: And the “association constant Ka” value (Sugar chain No. 712)?
Answer: The value was <1000 M⁻¹.

Question: And the “association constant Ka” value (Sugar chain No. 713)?
Answer: Its value is <1000 M⁻¹.

Question: And the “association constant Ka” value (Sugar chain No. 715)?
Answer: Its value is <1000 M⁻¹.

Question: And the “association constant Ka” value (Sugar chain No. 716)?
Answer: Its value is <1000 M⁻¹.

Question: What about the “association constant Ka” value (Sugar chain No. 717) of the same molecule?
Answer: The value was <1000 M⁻¹.

Question: And the “association constant Ka” value (Sugar chain No. 724)?
Answer: Its value is <1000 M⁻¹.

Question: And the “association constant Ka” value (Sugar chain No. 725)?
Answer: Its value is <1000 M⁻¹.

Question: And the “association constant Ka” value (Sugar chain No. 728 (as listed in Table 7))?
Answer: The value was <1000 M⁻¹.

Question: And the “association constant Ka” value (Sugar chain No. 732)?
Answer: Its value is <1000 M⁻¹.

Question: And the “association constant Ka” value (Sugar chain No. 733)?
Answer: Its value is <1000 M⁻¹.

Question: What about the “association constant Ka” value (Sugar chain No. 734) of the same molecule?
Answer: The value was <1000 M⁻¹.

Question: What about the “association constant Ka” value (Sugar chain No. 735) of the same molecule?
Answer: Its value is <1000 M⁻¹.

Question: And the “association constant Ka” value (Sugar chain No. 736)?
Answer: Its value is <1000 M⁻¹.

Question: And the “association constant Ka” value (Sugar chain No. 737)?
Answer: Its value is <1000 M⁻¹.

Question: And the “association constant Ka” value (Sugar chain No. 738)?
Answer: The value was <1000 M⁻¹.

Question: What about the “association constant Ka” value (Sugar chain No. 901) of the same molecule?
Answer: Its value is <1000 M⁻¹.

Question: And the “association constant Ka” value (Sugar chain No. 902)?
Answer: Its value is <1000 M⁻¹.

Question: And the “association constant Ka” value (Sugar chain No. 903)?
Answer: The value was <1000 M⁻¹.

Question: What about the “association constant Ka” value (Sugar chain No. 905) of the same molecule?
Answer: Its value is <1000 M⁻¹.

Question: And the “association constant Ka” value (Sugar chain No. 906)?
Answer: The value was <1000 M⁻¹.

Question: What about the “association constant Ka” value (Sugar chain No. 907) of the same molecule?
Answer: The value was <1000 M⁻¹.
